Measurements from patent US10883090B2, “P-coumaroyl-CoA:monolignol transferases” (WISCONSIN ALUMNI RESEARCH FOUNDATION, priority 2017, dated 2021).
“Also recorded” adds a separate entry of the source.

What was measured:
[1] = Activity screening of cell-free translated PMT enzymes with p-coumaroyl-CoA and monolignol mixture (LC-MS); type: biochemical; settings: fed monolignols (H, G, S) and p-coumaroyl-CoA; FIGS. 3A, 4A, 9
Experimental: The active enzymes were produced using a wheat germ cell-free translation bilayer method previously reported (Makino, S., Beebe, E. T., Markley, J. L. and Fox, B. G. (2014) Cell-free protein synthesis for functional and structural studies. Methods in Molecular Biology, 1091, 161-178). Briefly, a translation reaction mixture consisting of 60 OD wheat germ extract (CellFree Sciences, Matsuyama, Japan), 0.04 mg/mL creatine kinase, 0.3 mM each amino acid, 12.6 mM HEPES-KOH, pH 7.8, 52.6 mM potassium acetate, 1.3 mM magnesium acetate, 0.2 mM spermidine HCl, 2.1 mM DTT, 0.6 mM ATP, 0.13 mM GTP, 8.4 mM creatine phosphate, and 0.003% sodium azide was prepared and combined with non-purified, fresh transcription at a ratio of 4 parts reaction mix to 1 part transcription. A feeding layer was prepared consisting of 0.3 mM each amino acid, 24 mM HEPES-KOH, pH 7.8, 100 mM potassium acetate, 2.5 mM magnesium acetate, 0.4 mM spermidine HCl, 4 mM DTT, 1.2 mM ATP, 0.25 mM GTP, 16 mM creatine phosphate, and 0.005% sodium azide, of which […] was added to wells of a U-bottom 96-well plate. 25 μL of the denser translation reaction mixture was carefully underlayed below the feeding layer, forming a bilayer. The plate was sealed and incubated at 22° C. for 18 h. The fully-diffused 150-μL bilayer reaction was then harvested and used for expression analysis by SDS-PAGE, and activity screening. […]

[2] = Activity screening of cell-free translated PMT enzymes with feruloyl-CoA and monolignol mixture (LC-MS); type: biochemical; settings: fed monolignols (H, G, S) and feruloyl-CoA, FIGS. 3B, 4B, 10
Experimental: The active enzymes were produced using a wheat germ cell-free translation bilayer method previously reported (Makino, S., Beebe, E. T., Markley, J. L. and Fox, B. G. (2014) Cell-free protein synthesis for functional and structural studies. Methods in Molecular Biology, 1091, 161-178). Briefly, a translation reaction mixture consisting of 60 OD wheat germ extract (CellFree Sciences, Matsuyama, Japan), 0.04 mg/mL creatine kinase, 0.3 mM each amino acid, 12.6 mM HEPES-KOH, pH 7.8, 52.6 mM potassium acetate, 1.3 mM magnesium acetate, 0.2 mM spermidine HCl, 2.1 mM DTT, 0.6 mM ATP, 0.13 mM GTP, 8.4 mM creatine phosphate, and 0.003% sodium azide was prepared and combined with non-purified, fresh transcription at a ratio of 4 parts reaction mix to 1 part transcription. A feeding layer was prepared consisting of 0.3 mM each amino acid, 24 mM HEPES-KOH, pH 7.8, 100 mM potassium acetate, 2.5 mM magnesium acetate, 0.4 mM spermidine HCl, 4 mM DTT, 1.2 mM ATP, 0.25 mM GTP, 16 mM creatine phosphate, and 0.005% sodium azide, of which […] was added to wells of a U-bottom 96-well plate. 25 μL of the denser translation reaction mixture was carefully underlayed below the feeding layer, forming a bilayer. The plate was sealed and incubated at 22° C. for 18 h. The fully-diffused 150-μL bilayer reaction was then harvested and used for expression analysis by SDS-PAGE, and activity screening.
The enzyme mixture was screened for activity with p-coumaroyl-CoA (FIG. 2B) and feruloyl-CoA (FIG. 2C) and all three monolignols (FIG. 2A) (p-coumaryl, coniferyl, and sinapyl alcohol). Each enzyme was tested individually alongside positive and negative controls following the procedure previously reported (Withers, S., Lu, F., Kim, H., Zhu, Y., Ralph, J. and Wilkerson, C. G. (2012) Identification of a grass-specific enzyme that acylates monolignols with p-coumarate. Journal of Biological Chemistry, 287, 8347-8355). Briefly, the assay was initiated by adding 10 μL of wheat germ cell-free translation containing one of the PMT enzymes at a concentration of 1.5-2 μM to a reaction containing 50 mM sodium phosphate buffer, pH 6, 1 mM dithiothreitol (DTT), 1 mM CoA thioester, 1 mM monolignol mixture (each monolignol at 1 mM concentration), and deionized water in a final volume of 50 μL. After a 30-min incubation, the reaction was stopped by the addition of an equal volume 100 mM hydrochloric acid. Reaction products were solubilized by adjusting the solution to 50% methanol. An identical assay with no enzyme added was performed for every reaction. Samples were filtered through 0.2 μm filters prior to analysis by liquid chromatography-mass spectrometry (LC-MS). […]

| Molecule | p-coumaroyl-CoA:monolignol transferase activity (in words) [1] | feruloyl-CoA monolignol transferase activity (in words) [2] | feruloyl-CoA monolignol transferase activity (in words) ([2]; listed as SEQ ID NO:2) | feruloyl-CoA monolignol transferase activity (in words) ([2]; listed as SEQ ID NO:4) |
| --- | --- | --- | --- | --- |
| PvPMT: Panicum virgatum (switchgrass) p-coumaroyl-CoA:monolignol transferase, amino acid sequence SEQ ID NO:2, Pavir.J00672.1 (protein, listed as Panicum virgatum) MGTIGFPVTRTSRSLVAPSSATPQETLHLSVIDRVAGLRHLVRSLHVFDGRRGEAAVRTPAETLRAALGKALVDYYPLAGRFVEEDGEVRVACTAGGAWFVEAAAACTLEEVKHLDHPMVIPKEDLLPEPAPDVNPLDMPLMMQVTEFACGGFVVGLISVHTIADGLGAGQFINAVADYARGLPRPRVLPVWARDVIPAPSRIVSPPPRFDLLDLRYFTVDLSPEHIAKVKSSFFEATGQRCSAFDVCVAKTWQSRVRALRLDGDDPARPIHVCFFANTRHLLPQLAPGFYGNCFYTVRATRPCGEVAAAGVVEVVRAIRDAKARLGADFARWAAGGFERDPYELTFSYDSLFVSDWTRLGFLEADYGWGAPAHVVPFSYHPFMAVAVIGAPPAPKPGARVMTMCVTEKHLPEFQEQMNAFAAGNHQ | active PMTs, coupling monolignols to p-coumaroyl-CoA; also recorded: found to produce monolignol p-coumarate conjugates | limited to no feruloyl-CoA monolignol transferase activity; also recorded: little to no activity | no relevant activity in generating monolignol ferulates |  |
| SbPMT: Sorghum bicolor (sorghum) p-coumaroyl-CoA:monolignol transferase, amino acid sequence SEQ ID NO:4, Sb09g002910.1 (protein, Sorghum bicolor) MGTIDDTAGLFPVTRTNRSLVPPSSATPQETLRLSVIDRVAGLRHLVRSLHVFAGGENKKQAAPPAKSLREALGKALVDYYPFAGRFVEEDGEVRVACTGEGAWFVEAAAACSLEEVRHLDHPMLIPKEELLPEPAPGVNPLDMPLMMQVTEFTCGGFVVGLISVHTIADGLGAGQFINAVADYARGGATAGAVTRPRITPIWARDVIPDPPKMPAPPPRLDLLDLVYFTTDLSPDHIAKVKSSYLESTGQRCSAFDVCVARTWQARVRALRLPDAAAPVHVCFFANTRHLLPATAAAPASGFYGNCFYTVKATRPSGEVAAADIVDVVRAIRDAKARLAADFARWAAGGFDRDPYELTFTYDSLFVSDWTRLGFLEADYGWGTPTHVVPFSYHPFMAVAVIGAPPAPKPGARIMTMCVQEQHLPEFQEQMNQPCS | active PMTs, coupling monolignols to p-coumaroyl-CoA; also recorded: found to produce monolignol p-coumarate conjugates | limited to no feruloyl-CoA monolignol transferase activity; also recorded: little to no activity |  | no relevant activity in generating monolignol ferulates |
